{"source": "patent US20240270821A1", "about": "“GIP/GLP1/GCG TRI-RECEPTOR AGONISTS AND USES THEREOF” (priority 2023, published 2024)", "binders": {"B1": {"name": "Example 959 (peptide)", "chain": "YXQGTFTSDXSRXLDKKAQXAFIEXLIEGGPSSGAPPPSGSEE", "modifications": "Aib, 4Pal, αMeL, Me4Pal; acylated Lys; C-terminal amide; synthetic construct; SITE 2: note = 2-Aminoisobutyric Acid; SITE 10: note = 3-(4-Pyridyl)-L-alanine; SITE 13: note = alpha-methyl-leucine; SITE 17: note = Lysine is chemically modified through conjugation of the epsilon-amino group of the Lysine side chain with (gamma-Glu)2-CO-(CH2)16-CO2H; SITE 20:"}, "B2": {"name": "Example 974 (peptide)", "chain": "B1 chain with R12X, K16X, A21X", "modifications": "Aib, 4Pal, Orn, Me4Pal, alpha-methyl-Tyr, lipidated Lys, amide; synthetic construct; SITE 2: note = 2-Aminoisobutyric Acid; SITE 10: note = 3-(4-Pyridyl)-L-alanine; SITE 12: note = L-ornithine; SITE 13: note = alpha-methyl-leucine; SITE 16: note = L-ornithine; SITE 17: note = Lysine is chemically modified through conjugation of the epsilon-amino group of the Lys"}, "B3": {"name": "Example 963 (peptide)", "chain": "B1 chain with R12Q, X25Y, E28A, P31E", "modifications": "synthetic construct; SITE 2: note = 2-Aminoisobutyric Acid; SITE 10: note = 3-(4-Pyridyl)-L-alanine; SITE 13: note = alpha-methyl-leucine; SITE 17: note = Lysine is chemically modified through conjugation of the epsilon-amino group of the Lysine side chain with (gamma-Glu)2-CO-(CH2)16-CO2H; SITE 20:"}, "B4": {"name": "Example 972 (peptide)", "chain": "B1 chain with R12X, K16X, A21Q", "modifications": "non-natural residues; (γGlu)2-C18 diacid on Lys; C-terminal amide; synthetic construct; SITE 2: note = 2-Aminoisobutyric Acid; SITE 10: note = 3-(4-Pyridyl)-L-alanine; SITE 12: note = L-ornithine; SITE 13: note = alpha-methyl-leucine; SITE 16: note = L-ornithine; SITE 17: note = Lysine is chemically modified through conjugation of the epsilon-amino group of the Lys"}, "B5": {"name": "Example 971 (peptide)", "chain": "B1 chain with R12Q, X25Y, E28A, A35E, E42G", "modifications": "synthetic construct; SITE 2: note = 2-Aminoisobutyric Acid; SITE 10: note = 3-(4-Pyridyl)-L-alanine; SITE 13: note = alpha-methyl-leucine; SITE 17: note = Lysine is chemically modified through conjugation of the epsilon-amino group of the Lysine side chain with (gamma-Glu)2-CO-(CH2)16-CO2H; SITE 20:"}, "B6": {"name": "Example 966 (peptide)", "chain": "YXQGTFTSDXSXXLDKKAQXAFIEXLIEGGPSSGAPPPSGSE", "modifications": "acylated Lys (γGlu)2-C18 diacid; non-natural residues; C-terminal amide; synthetic construct; SITE 2: note = 2-Aminoisobutyric Acid; SITE 10: note = 3-(4-Pyridyl)-L-alanine; SITE 12: note = L-ornithine; SITE 13: note = alpha-methyl-leucine; SITE 17: note = Lysine is chemically modified through conjugation of the epsilon-amino group of the Lysine side chain with (gamma-Gl)"}, "B7": {"name": "Example 984 (peptide)", "chain": "B6 chain with K16X, X25Y, E28A, A35E, S41T", "modifications": "Aib, 4Pal, Orn, αMeL, Me4Pal; (γGlu)2-C18 diacid on Lys; amide; synthetic construct; SITE 2: note = 2-Aminoisobutyric Acid; SITE 10: note = 3-(4-Pyridyl)-L-alanine; SITE 12: note = L-ornithine; SITE 13: note = alpha-methyl-leucine; SITE 16: note = L-ornithine; SITE 17: note = Lysine is chemically modified through conjugation of the epsilon-amino group of the Lys"}, "B8": {"name": "Example 980 (peptide)", "chain": "B6 chain with X25Y, E28A, A35E, S41T", "modifications": "synthetic construct; SITE 2: note = 2-Aminoisobutyric Acid; SITE 10: note = 3-(4-Pyridyl)-L-alanine; SITE 12: note = L-ornithine; SITE 13: note = alpha-methyl-leucine; SITE 17: note = Lysine is chemically modified through conjugation of the epsilon-amino group of the Lysine side chain with (gamma-Gl)"}}, "note": "Substitutions are numbered along the chain they refer to."}
{"biological_target": "hGLP-1R (Homo sapiens, UniProt P43220)", "sequence (P43220 24-463)": "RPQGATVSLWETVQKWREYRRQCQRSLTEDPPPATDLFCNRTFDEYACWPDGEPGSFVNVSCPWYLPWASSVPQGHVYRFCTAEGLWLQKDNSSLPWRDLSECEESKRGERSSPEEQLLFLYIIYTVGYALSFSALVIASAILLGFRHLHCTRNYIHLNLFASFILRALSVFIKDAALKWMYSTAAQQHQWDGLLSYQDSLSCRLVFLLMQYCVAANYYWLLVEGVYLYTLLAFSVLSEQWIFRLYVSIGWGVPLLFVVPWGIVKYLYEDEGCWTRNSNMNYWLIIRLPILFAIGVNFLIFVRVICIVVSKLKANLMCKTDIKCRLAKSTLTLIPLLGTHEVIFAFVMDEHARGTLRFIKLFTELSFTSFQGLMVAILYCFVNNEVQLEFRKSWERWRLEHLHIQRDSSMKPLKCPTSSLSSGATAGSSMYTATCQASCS", "assay": "cell-based or functional assay", "units": {"cAMP Rel EC50, nM (1% HSA)": "nM", "Relative cAMP EC50": "nM"}}
{"binder": "B1", "cAMP Rel EC50, nM (1% HSA)": 503}
{"binder": "B2", "cAMP Rel EC50, nM (1% HSA)": 283}
{"binder": "B3", "Relative cAMP EC50": 1.77, "cAMP Rel EC50, nM (1% HSA)": 215}
{"binder": "B4", "cAMP Rel EC50, nM (1% HSA)": 327}
{"binder": "B5", "Relative cAMP EC50": 3.46, "cAMP Rel EC50, nM (1% HSA)": 294}
{"binder": "B6", "cAMP Rel EC50, nM (1% HSA)": 257}
{"binder": "B7", "Relative cAMP EC50": 2.07, "cAMP Rel EC50, nM (1% HSA)": 160}
{"binder": "B8", "Relative cAMP EC50": 2.26, "cAMP Rel EC50, nM (1% HSA)": 290}
{"biological_target": "T1, human GIP receptor (human) (UniProt P48546)", "T1 sequence (looked up)": "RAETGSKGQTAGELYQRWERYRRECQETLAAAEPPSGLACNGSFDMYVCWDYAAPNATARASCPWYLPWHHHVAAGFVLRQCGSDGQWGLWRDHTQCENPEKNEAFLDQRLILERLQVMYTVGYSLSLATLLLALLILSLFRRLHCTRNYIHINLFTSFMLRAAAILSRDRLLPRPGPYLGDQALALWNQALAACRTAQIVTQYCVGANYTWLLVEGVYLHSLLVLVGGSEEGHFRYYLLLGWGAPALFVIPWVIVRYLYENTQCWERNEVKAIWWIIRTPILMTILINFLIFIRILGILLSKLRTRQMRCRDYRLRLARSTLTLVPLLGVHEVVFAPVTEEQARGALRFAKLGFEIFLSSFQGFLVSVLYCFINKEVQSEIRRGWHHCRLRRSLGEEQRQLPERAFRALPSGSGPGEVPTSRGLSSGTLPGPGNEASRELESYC", "assay": "cell-based or functional assay", "units": {"cAMP Rel EC50, nM (1% HSA)": "nM", "Relative cAMP EC50": "nM"}}
{"binder": "B1", "cAMP Rel EC50, nM (1% HSA)": 24.5}
{"binder": "B2", "cAMP Rel EC50, nM (1% HSA)": 80.9}
{"binder": "B3", "Relative cAMP EC50": 0.244, "cAMP Rel EC50, nM (1% HSA)": 25.1}
{"binder": "B4", "cAMP Rel EC50, nM (1% HSA)": 30.4}
{"binder": "B5", "Relative cAMP EC50": 0.298, "cAMP Rel EC50, nM (1% HSA)": 30.2}
{"binder": "B6", "cAMP Rel EC50, nM (1% HSA)": 35.9}
{"binder": "B7", "Relative cAMP EC50": 0.232, "cAMP Rel EC50, nM (1% HSA)": 23.5}
{"binder": "B8", "Relative cAMP EC50": 0.18, "cAMP Rel EC50, nM (1% HSA)": 15.4}
{"biological_target": "human glucagon receptor (human) (UniProt P47871)", "sequence (P47871 26-477)": "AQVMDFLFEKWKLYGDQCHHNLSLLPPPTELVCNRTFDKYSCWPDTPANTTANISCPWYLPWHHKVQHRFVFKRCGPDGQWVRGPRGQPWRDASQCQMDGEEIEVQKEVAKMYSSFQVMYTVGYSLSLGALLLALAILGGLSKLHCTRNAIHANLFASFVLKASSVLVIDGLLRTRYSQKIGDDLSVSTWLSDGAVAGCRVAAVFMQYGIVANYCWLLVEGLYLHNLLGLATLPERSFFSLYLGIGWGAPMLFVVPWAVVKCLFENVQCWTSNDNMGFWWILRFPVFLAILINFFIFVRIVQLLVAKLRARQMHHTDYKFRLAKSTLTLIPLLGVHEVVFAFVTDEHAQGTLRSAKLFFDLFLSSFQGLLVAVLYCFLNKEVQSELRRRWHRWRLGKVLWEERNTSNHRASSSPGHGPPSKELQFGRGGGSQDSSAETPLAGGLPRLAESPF", "assay": "cell-based or functional assay", "units": {"cAMP Rel EC50, nM (1% HSA)": "nM", "Relative cAMP EC50": "nM"}}
{"binder": "B1", "cAMP Rel EC50, nM (1% HSA)": 316}
{"binder": "B2", "cAMP Rel EC50, nM (1% HSA)": 870}
{"binder": "B3", "Relative cAMP EC50": 5.81, "cAMP Rel EC50, nM (1% HSA)": 900}
{"binder": "B4", "cAMP Rel EC50, nM (1% HSA)": 660}
{"binder": "B5", "Relative cAMP EC50": 8.26, "cAMP Rel EC50, nM (1% HSA)": 1340}
{"binder": "B6", "cAMP Rel EC50, nM (1% HSA)": 581}
{"binder": "B7", "Relative cAMP EC50": 4.5, "cAMP Rel EC50, nM (1% HSA)": 409}
{"binder": "B8", "Relative cAMP EC50": 2.41, "cAMP Rel EC50, nM (1% HSA)": 239}
